According to patent US12630600B2 (MEDIMMUNE LIMITED, priority 2022, dated 2026):
Starred links: 1 amine or outer side, 2 acyl side, 3 side chain; linkers in the order of their positions; H or OH if unused. Non-standard residues stand in square brackets, D forms with d. Groups on a side chain read outwards from the residue. No end group written: not given here. *: point of attachment. C20 diacid = O=C(O)CCCCCCCCCCCCCCCCCCC(=O)*; C18 diacid = O=C(O)CCCCCCCCCCCCCCCCC(=O)*; γGlu = O=C(O)[C@H](CCC(=O)[*:2])N[*:1]; αMeF = C[C@](N)(Cc1ccccc1)C(=O)O; AEEA = NCCOCCOCC(=O)O; Aib = CC(C)(N)C(=O)O

Assays:
[1] = biological target: human GLP-1 receptor (human, UniProt P43220); assay: cell-based or functional assay
[2] = biological target: human glucagon receptor (human, UniProt P47871); assay: cell-based or functional assay

| Binder | cAMP production, hGLP-1R EC50 (pM) [1] [pM] | cAMP production, hGluc-R EC50 (pM) [2] [pM] |
| --- | --- | --- |
| H[Aib]QGTFTSDVSK[αMeF]LDSK([AEEA-AEEA-γGlu-C18 diacid])RA[Aib]DFVQWLL[Aib]T-OH (N-terminus assumed; SMILES CC(C)C[C@H](NC(=O)[C@H](Cc1c[nH]c2ccccc12)NC(=O)[C@H](CCC(N)=O)NC(=O)[C@@H](NC(=O)[C@H](Cc1ccccc1)NC(=O)[C@H](CC(=O)O)NC(=O)C(C)(C)NC(=O)[C@H](C)NC(=O)[C@H](CCCNC(=N)N)NC(=O)[C@H](CCCCNC(=O)COCCOCCNC(=O)COCCOCCNC(=O)CC[C@H](NC(=O)CCCCCCCCCCCCCCCCC(=O)O)C(=O)O)NC(=O)[C@H](CO)NC(=O)[C@H](CC(=O)O)NC(=O)[C@H](CC(C)C)NC(=O)[C@](C)(Cc1ccccc1)NC(=O)[C@H](CCCCN)NC(=O)[C@H](CO)NC(=O)[C@@H](NC(=O)[C@H](CC(=O)O)NC(=O)[C@H](CO)NC(=O)[C@@H](NC(=O)[C@H](Cc1ccccc1)NC(=O)[C@@H](NC(=O)CNC(=O)[C@H](CCC(N)=O)NC(=O)C(C)(C)NC(=O)[C@@H](N)Cc1c[nH]cn1)[C@@H](C)O)[C@@H](C)O)C(C)C)C(C)C)C(=O)N[C@@H](CC(C)C)C(=O)NC(C)(C)C(=O)N[C@H](C(=O)O)[C@@H](C)O) [Peptide 29] | 107 | 629 |
| H[Aib]HGS[αMeF]TSDVSK[αMeF]LDSK([AEEA-AEEA-γGlu-γGlu-C20 diacid])AAQD[αMeF]VQ[Aib]IANT-NH2 [Peptide 25] | 726 | 1310 |
| H[Aib]HGS[αMeF]TSDVSK[αMeF]LDSK([AEEA-AEEA-γGlu-γGlu-C20 diacid])AAQD[αMeF]VESIANT-NH2 (N-terminus assumed; SMILES CC[C@H](C)[C@H](NC(=O)[C@H](CO)NC(=O)[C@H](CCC(=O)O)NC(=O)[C@@H](NC(=O)[C@](C)(Cc1ccccc1)NC(=O)[C@H](CC(=O)O)NC(=O)[C@H](CCC(N)=O)NC(=O)[C@H](C)NC(=O)[C@H](C)NC(=O)[C@H](CCCCNC(=O)COCCOCCNC(=O)COCCOCCNC(=O)CC[C@H](NC(=O)CC[C@H](NC(=O)CCCCCCCCCCCCCCCCCCC(=O)O)C(=O)O)C(=O)O)NC(=O)[C@H](CO)NC(=O)[C@H](CC(=O)O)NC(=O)[C@H](CC(C)C)NC(=O)[C@](C)(Cc1ccccc1)NC(=O)[C@H](CCCCN)NC(=O)[C@H](CO)NC(=O)[C@@H](NC(=O)[C@H](CC(=O)O)NC(=O)[C@H](CO)NC(=O)[C@@H](NC(=O)[C@](C)(Cc1ccccc1)NC(=O)[C@H](CO)NC(=O)CNC(=O)[C@H](Cc1c[nH]cn1)NC(=O)C(C)(C)NC(=O)[C@@H](N)Cc1c[nH]cn1)[C@@H](C)O)C(C)C)C(C)C)C(=O)N[C@@H](C)C(=O)N[C@@H](CC(N)=O)C(=O)N[C@H](C(N)=O)[C@@H](C)O) [Peptide 22] | 1230 | 2720 |
| HSQGS[αMeF]TSDVSK[αMeF]LDSK([AEEA-AEEA-γGlu-C20 diacid])AAQD[αMeF]VQWIANT-NH2 (N-terminus assumed; SMILES CC[C@H](C)[C@H](NC(=O)[C@H](Cc1c[nH]c2ccccc12)NC(=O)[C@H](CCC(N)=O)NC(=O)[C@@H](NC(=O)[C@](C)(Cc1ccccc1)NC(=O)[C@H](CC(=O)O)NC(=O)[C@H](CCC(N)=O)NC(=O)[C@H](C)NC(=O)[C@H](C)NC(=O)[C@H](CCCCNC(=O)COCCOCCNC(=O)COCCOCCNC(=O)CC[C@H](NC(=O)CCCCCCCCCCCCCCCCCCC(=O)O)C(=O)O)NC(=O)[C@H](CO)NC(=O)[C@H](CC(=O)O)NC(=O)[C@H](CC(C)C)NC(=O)[C@](C)(Cc1ccccc1)NC(=O)[C@H](CCCCN)NC(=O)[C@H](CO)NC(=O)[C@@H](NC(=O)[C@H](CC(=O)O)NC(=O)[C@H](CO)NC(=O)[C@@H](NC(=O)[C@](C)(Cc1ccccc1)NC(=O)[C@H](CO)NC(=O)CNC(=O)[C@H](CCC(N)=O)NC(=O)[C@H](CO)NC(=O)[C@@H](N)Cc1c[nH]cn1)[C@@H](C)O)C(C)C)C(C)C)C(=O)N[C@@H](C)C(=O)N[C@@H](CC(N)=O)C(=O)N[C@H](C(N)=O)[C@@H](C)O) [Peptide 2] | 1280 | 4190 |
| H[Aib]HGS[αMeF]TSDVSK[αMeF]LDSK([AEEA-AEEA-γGlu-C18 diacid])AAQD[αMeF]VQ[Aib]IANT-NH2 (N-terminus assumed; SMILES CC[C@H](C)[C@H](NC(=O)C(C)(C)NC(=O)[C@H](CCC(N)=O)NC(=O)[C@@H](NC(=O)[C@](C)(Cc1ccccc1)NC(=O)[C@H](CC(=O)O)NC(=O)[C@H](CCC(N)=O)NC(=O)[C@H](C)NC(=O)[C@H](C)NC(=O)[C@H](CCCCNC(=O)COCCOCCNC(=O)COCCOCCNC(=O)CC[C@H](NC(=O)CCCCCCCCCCCCCCCCC(=O)O)C(=O)O)NC(=O)[C@H](CO)NC(=O)[C@H](CC(=O)O)NC(=O)[C@H](CC(C)C)NC(=O)[C@](C)(Cc1ccccc1)NC(=O)[C@H](CCCCN)NC(=O)[C@H](CO)NC(=O)[C@@H](NC(=O)[C@H](CC(=O)O)NC(=O)[C@H](CO)NC(=O)[C@@H](NC(=O)[C@](C)(Cc1ccccc1)NC(=O)[C@H](CO)NC(=O)CNC(=O)[C@H](Cc1c[nH]cn1)NC(=O)C(C)(C)NC(=O)[C@@H](N)Cc1c[nH]cn1)[C@@H](C)O)C(C)C)C(C)C)C(=O)N[C@@H](C)C(=O)N[C@@H](CC(N)=O)C(=O)N[C@H](C(N)=O)[C@@H](C)O) [Peptide 24] | 82.8 | 101 |
| H[Aib]HGS[αMeF]TSDVSK[αMeF]LDSK([AEEA-AEEA-γGlu-C18 diacid])AAQD[αMeF]VESIANT-NH2 (N-terminus assumed; SMILES CC[C@H](C)[C@H](NC(=O)[C@H](CO)NC(=O)[C@H](CCC(=O)O)NC(=O)[C@@H](NC(=O)[C@](C)(Cc1ccccc1)NC(=O)[C@H](CC(=O)O)NC(=O)[C@H](CCC(N)=O)NC(=O)[C@H](C)NC(=O)[C@H](C)NC(=O)[C@H](CCCCNC(=O)COCCOCCNC(=O)COCCOCCNC(=O)CC[C@H](NC(=O)CCCCCCCCCCCCCCCCC(=O)O)C(=O)O)NC(=O)[C@H](CO)NC(=O)[C@H](CC(=O)O)NC(=O)[C@H](CC(C)C)NC(=O)[C@](C)(Cc1ccccc1)NC(=O)[C@H](CCCCN)NC(=O)[C@H](CO)NC(=O)[C@@H](NC(=O)[C@H](CC(=O)O)NC(=O)[C@H](CO)NC(=O)[C@@H](NC(=O)[C@](C)(Cc1ccccc1)NC(=O)[C@H](CO)NC(=O)CNC(=O)[C@H](Cc1c[nH]cn1)NC(=O)C(C)(C)NC(=O)[C@@H](N)Cc1c[nH]cn1)[C@@H](C)O)C(C)C)C(C)C)C(=O)N[C@@H](C)C(=O)N[C@@H](CC(N)=O)C(=O)N[C@H](C(N)=O)[C@@H](C)O) [Peptide 23] | 266 | 321 |
